The record followed here is US5770720.

Assay [1] addresses LexADB/WT-N (LexA DNA binding domain fused to residues 85-179 of human WT1) (human) (UniProt P19544). As to the kind of experiment: yeast two-hybrid, LexA DNA binding domain fusion against Gal4 activation domain fusion.
Assay [2] addresses LexADB/lamin C hybrid (Escherichia coli (strain K12)). Described as above.
Assay [3] has as its target WT1, Wilm's tumor suppressor gene product (full length) (human) (UniProt P19544).
Assay [4] addresses LexADB/WT-INS (containing residues 250-266 of WT1) (human) (UniProt P19544). As to the kind of experiment: yeast two-hybrid, LexA DNA binding domain fusion against Gal4 activation domain vector alone.
The target of assay [5] is LexADB/WT-N (LexA DNA binding domain fused to residues 85-179 of human WT1) (human) (UniProt P19544). The assay is described as above.
Assay [6] deals with LexADB/lamin C hybrid (Escherichia coli (strain K12)). The description is as above.

hUBC-9 fused with the Gal4 activation domain, sequence (P63279 whole entry, the tested form may be a part): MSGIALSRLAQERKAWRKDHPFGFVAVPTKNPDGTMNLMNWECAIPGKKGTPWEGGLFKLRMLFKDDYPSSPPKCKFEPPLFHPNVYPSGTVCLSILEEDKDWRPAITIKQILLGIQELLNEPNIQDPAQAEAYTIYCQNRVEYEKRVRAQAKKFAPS
hUBC-9, human ubiquitin conjugating enzyme, sequence (P63279 whole entry): as the sequence (P63279 whole entry, the tested form may be a part) above

Turning to “hUBC-9 fused with the Gal4 activation domain”, the β-Galactosidase activity in assay [1] came out at 57.9 units; in assay [2], 1.5 units.

With “hUBC-9, human ubiquitin conjugating enzyme”, the relative CAT activity (PDGF A-chain promoter driven CAT reporter, 293 cells) (% relative activity) in assay [3] came out at 2.

Take “Gal4 activation domain vector alone (from UniProt P04386)”: the values for the β-Galactosidase activity in assay [4], in assay [5] and in assay [6] were 0.2 units, 0.3 units and 0.3 units, respectively.
